Assay: soluble on expression in E. coli; label from the status in PepcDB or PDB records

Sequence	soluble on expression in E. coli
MWLGYMNKSIPTTRKTRTFKAMSIEFSAPAKMKIEVWSDIMCPFCYIGKKRLDDALSTFDQAGRIEVEYKSFELMPGLETHPLRSDVEYLADAKGMSLEQARQMNGQVQAMAQATGLEMNPDETIAANTINAHRLTHFAKAHGKQQEVAQELFKAHFVDGKNVDDLDVLVSIAAEVGLDASAAREALESDVYTNEVQQDVHEARQLGVQGVPFFVFDRKYAINGAQQEEVFTGTVEKAFEEWAAENPVSPFEVIDGQSCSVDGTCN	not soluble
MCTSLTLETKNGQHLFARTMDFTLDMNQEVIIIPRHYQWNNITGEIINTKHATVGMGINHQGRIIMADGVNEAGMTCATLYFPGFATYSQSIDDNTTNLAPFDFVTWSLTQFNSVKELKKSVDSITFLDIPLPDLGLTPPLHWILADKWGDCIVLDPTSEGLKLYDNPLGVMTNSPEFNWHLQNLRQYIGLKSQPFAPTEWSNLPLSAFGQGSGSMGLPGDFTPPSRFVRAAYGKQNIQGIDSEEEGVSALFHILSNCEVPKGGVITEEGALDNTIYTSVMCMESGTYYYHTYDCRQIIAVHLFHENLDTDEIKAYPFQRKQKIFYEN	not soluble
MGTEFNGLFDEWAHTYDSFVQGEDIQYKEVFAHYEDILEDVVNKSFGNVLEFGVGTGNLTNKLLLAGRTVYGIEPSREMRMIAKEKLPKEFSITEGDFLSFEVPNSIDTIVSTYAFHHLTDDEKNVAIAKYSQLLNKGGKIVFADTIFADQDAYDKTVETSKRKRFPPVSKRFANGILYTYSSYADYFLEHHHHHH	soluble
MAEVRARVDFKVGAKSNIDAEILSFRGLKTDKEHVAVIFKQADQTQDTPLVRMHSECLTGDVFHSSRCDCGEQLEETIQRMGESGGVILYLRQEGRGIGLYNKIDAYRLQSQGMNTYEANNHLGFDDDLRDFTEAAQMLEALGIKKIRLVTNNPKKIRELAEYGIEIVEVVNTSAHIKDGNENYLRAKVSHGKHNLKVLEHHHHHH	soluble
MDAARFPADARVRVLARRFPPYHRDSPCLAILDRFLHDPTLSAAAVVDDAMRPVGLIDRYSLVEQFLHPYSRDLYHKHSIAAFMDPEPVIVEADSSIDDLSRIIIDAGMRHMVSGFIVTEDGLYLGIGSGHDLFEEVANRKQNHLYHLAHYDPLTSLPNRLLLNDRLKRACLRGQRGGYRIALLFIDLDRFKLVNDTLGHAAGDQLLQGVAGRFAACVRKVDTVARLGGDEFTVLLEPVQGPDEALAVAAKLAQSLERPFLIQNHEITTSASIGVVLFPEHDATVEGLMRKADAAMYCAKREGRNRFALFTEEMNSTVVERVTLESYLNAALEKGEFCCHFQPQMATADDRIVGVEALLRWTNPVLGRVPPLKFIPVAEDTGLILPLGLWALETACAQQVRWLSQGLPPLRMAVNISPLQFRNREFCDQVRAIVQRTGIRAEHLELELTESAVMADAESSVGILRELRDSGIRLAIDDFGTGYSSLSYLRKFPLDRLKIDRSFVSGIDRIPANELIVKAIVALGGSLGLDVIAEGVETPEELECIERCGCSEYQGFRLSEPLTAEDFAHWFEDSGYVLEHHHHHH	not soluble
MGSDKIHHHHHHMIGHVPVGSSAPVVVQSMTNTDTADAAATVRQVYELWRAGSEIVRITVNSPEAAAQVGAIRRQLDDLGCNVPLVGDFHFNGHRLLAQYPDCAEALAKYRINPGNVGKGSKRDEQFSAMIKAAIDYNKPVRIGVNWGSLDQAKMARMMDENSKRAAPLAADALMREMLIQSALENAAAAEELGLPSDRIIISCKVSAVQDLIKVYRDLGSRCDYPLHLGLTEAGMGSKGIVASTAALSVLLQDGIGDTIRVSLTPEPGESRTKEVVVAQEILQTMGIRSFTPLVTACPGCGRTTSTFFQELAQKIQHYLRDQMPVWRSQYPGVENMSVAVMGCVVNGPGESKLANIGISLPGTGEVPVAPVYVDGEKTVTLKGERIADDFKVIVEEYVRVNYAEGGRLRQQGTGTGLKTIPLKAI	not soluble
GPGSMQTSQSLHTAPAEKEVEAPPQLPLTDGRCYACRRCRRILSEVQWYATGCVECSATMGVPDRDSLLDFATPHFHNFIGLIAPGQSWVARLIMKSREPTNGIFAETLSDDEPEDEENEIEPYVGDADEEEGPALLDGEDGAAEPVHELAAEAPE	soluble
GKKTRSVKSCVGKEFCRFGTQYTTRLGIRLEKTFEYIDTPHKFKMGVSGCPRSCVESGVKDFGVISVENGYQIFIGGNGGTDVTVGKLLTTVETEDEVIQLCGALMQYYRETGVYAERTAPWLERMGFENVKNVLLNQ	not soluble
